According to paper PMC7144941:

Columns and labels:
[1] = target: catalytically inactive H97A mutant of mouse endonuclease G lacking the N-terminal mitochondrial localization sequence (mouse); assay: crystal structure
[2] = target: T1, i-mEndoG H97A (catalytically inactive mouse endonuclease G) (mouse, UniProt O08600 42-294, H138A); assay: X-ray crystallography
T1 sequence: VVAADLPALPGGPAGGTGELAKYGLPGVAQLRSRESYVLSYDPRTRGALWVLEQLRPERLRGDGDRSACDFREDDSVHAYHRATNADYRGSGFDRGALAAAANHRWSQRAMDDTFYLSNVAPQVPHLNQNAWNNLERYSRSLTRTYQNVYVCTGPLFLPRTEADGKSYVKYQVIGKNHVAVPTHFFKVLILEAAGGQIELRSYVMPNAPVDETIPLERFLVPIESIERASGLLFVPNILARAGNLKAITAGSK

Molecule | stoichiometry N [1] | binding result [2]
catalytically inactive H97A mutant of mouse endonuclease G lacking the N-terminal mitochondrial localization sequence (enzyme) | 2 | –
decanucleotide d(CCGGCGCCGG) (dsDNA) DNA 1: CCGGCGCCGG DNA 2: CCGGCGCCGG | – | binds
